Measurements as given in patent US20240270806A1 (Chugai, published 2024).
Values belong to the binder of their own block, whether it stands above or below them.

Experiments:
[1] = molecular target: T1, Human IL-12 receptor (human IL-12Rb1 and IL-12Rb2) (human, UniProt P42701 24-662; Q99665 24-862); test: cell-based or functional assay
[2] = molecular target: T1, Human IL-12 receptor (human IL-12Rb1 …); test: cell-based or functional assay; remark: listed apart in the source
[3] = molecular target: T1, Human IL-12 receptor (human IL-12Rb1 …); test: cell-based or functional assay; remark: listed apart in the source
[4] = molecular target: T2, Human IL-12 (human, UniProt P29460 23-328; P29459 23-219); test: SPR, BIACORE T200, 37 degrees C, pH 7.4; antibody captured by anti-human Fc antibody, human IL-12 injected at 5 and 20 nM; 1:1 binding model
T2 construct: also called human Interleukin-12
T2 sequence (looked up) 1: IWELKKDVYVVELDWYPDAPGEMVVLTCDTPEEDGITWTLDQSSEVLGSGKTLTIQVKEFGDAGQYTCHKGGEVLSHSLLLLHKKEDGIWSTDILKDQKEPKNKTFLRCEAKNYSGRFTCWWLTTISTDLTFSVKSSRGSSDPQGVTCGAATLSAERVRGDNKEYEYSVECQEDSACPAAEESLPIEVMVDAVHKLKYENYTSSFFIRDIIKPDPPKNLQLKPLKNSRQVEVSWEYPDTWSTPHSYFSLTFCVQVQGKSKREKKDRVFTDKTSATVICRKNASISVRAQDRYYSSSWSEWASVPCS
T2 sequence (looked up) 2: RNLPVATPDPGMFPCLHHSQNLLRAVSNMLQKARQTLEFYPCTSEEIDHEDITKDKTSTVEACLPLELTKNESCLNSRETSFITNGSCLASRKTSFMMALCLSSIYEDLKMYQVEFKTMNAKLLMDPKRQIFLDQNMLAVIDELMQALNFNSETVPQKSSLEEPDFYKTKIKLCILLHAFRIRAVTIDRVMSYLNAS
Description: The affinity of anti-IL12 antibodies binding to human IL-12 at pH 7.4 was determined at 37 degrees C. using BIACORE® T200 instrument (GE Healthcare). […] (GE Healthcare) was immobilized onto all flow cells of a CM4 sensor chip using amine coupling kit (GE Healthcare). All antibodies and analytes were prepared in ACES pH 7.4 containing 20 mM ACES, 150 mM NaCl, 0.05% Tween 20, 0.005% NaN₃. Each antibody was captured onto the sensor surface by anti-human Fc antibody. Antibody capture levels were aimed at 50 resonance unit (RU). Human IL-12 was injected at 5 and 20 nM, followed by dissociation. Sensor surface was regenerated each cycle with 3M MgCl₂.

T1 sequence (Q99665 24-862, chain 2 of 2, other chains not shown): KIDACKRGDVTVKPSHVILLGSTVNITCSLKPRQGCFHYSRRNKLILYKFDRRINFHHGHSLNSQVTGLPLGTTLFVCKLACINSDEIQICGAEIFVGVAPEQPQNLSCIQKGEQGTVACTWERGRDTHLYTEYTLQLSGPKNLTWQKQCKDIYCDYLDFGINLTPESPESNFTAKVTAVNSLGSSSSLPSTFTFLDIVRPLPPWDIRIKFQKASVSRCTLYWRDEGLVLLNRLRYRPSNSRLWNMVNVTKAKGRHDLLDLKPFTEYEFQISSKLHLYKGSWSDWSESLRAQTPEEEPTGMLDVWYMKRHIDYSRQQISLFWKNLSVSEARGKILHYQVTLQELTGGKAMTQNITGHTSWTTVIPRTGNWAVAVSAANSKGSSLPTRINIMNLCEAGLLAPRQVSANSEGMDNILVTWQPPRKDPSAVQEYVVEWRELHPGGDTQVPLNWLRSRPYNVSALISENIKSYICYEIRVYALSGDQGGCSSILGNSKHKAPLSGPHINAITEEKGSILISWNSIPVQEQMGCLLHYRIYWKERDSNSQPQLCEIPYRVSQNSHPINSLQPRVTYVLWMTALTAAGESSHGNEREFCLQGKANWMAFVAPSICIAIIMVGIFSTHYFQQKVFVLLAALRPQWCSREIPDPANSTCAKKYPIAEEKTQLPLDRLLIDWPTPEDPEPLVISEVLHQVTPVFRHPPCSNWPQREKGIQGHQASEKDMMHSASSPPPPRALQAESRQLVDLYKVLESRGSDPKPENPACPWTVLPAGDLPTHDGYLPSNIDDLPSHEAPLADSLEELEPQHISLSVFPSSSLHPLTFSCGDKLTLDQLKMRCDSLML

B2: Anti-IL-12 antibody, Ab1, comprising VH release enhancing mutations (Ab101H89-12aa0054-C8/Ab102L69-SK1) (antibody, V domains shown)
VH: QVQLVQSGAEVKKPGSSVKVSCKASGGTFSDYYLHWSRQAPGQGLEWMGWIDPENGDTEYAPKFQGRVTITADESTSTAYMELSSLRSEDTAVYYCARNKELRYIDVWGQGTLVTVSS
VL: DIVMTQSPLSLPVTPGEPASISCRASQSISINLHWYQQKPGQAPRQLIAFASQSISGVPSRFSGSGSGTDFTLTISSLQPEDFATYYCQQSNSFPLTFGQGTKVEIKR
notes: Homodimer of a light and a heavy chain; Mutations V37S, F100aI / L46Q, Y49A; also called Ab101H89/Ab102L69
Kd [4]: 6.52 nM

B4: Anti-IL-12 antibody Ab1, variable region variant Ab101H89/Ab102L994 (antibody, V domains shown)
VH: QVQLVQSGAEVKKPGSSVKVSCKASGGTFSDYYLHWSRQAPGQGLEWMGWIDPENGDTEYAPKFQGRVTITADESTSTAYMELSSLRSEDTAVYYCARNKELRYIDVWGQGTLVTVSS
VL: DIVMTQSPLSLPVTPGEPASISCRASQSISINLHWYQQKPGQAPRQLIAFASQSISGVPSRFSGSGSGTDFTLTISSLQPEDFATYYCQQSYSFPLTFGQGTKVEIKR
notes: Mutations V37S, F100aI / L46Q, Y49A, N92Y
Kd [4]: 3.51 nM

More lines, now with the values ahead:

EC50 (read off the curve), IL-12 luciferase reporter assay (+ MTSP1) [1]: ~0.2 nM | EC50 (read off the curve), IL-12 luciferase reporter assay (without protease) [1]: ~0.2 nM | EC50 (read off the curve), IL-12 luciferase reporter assay (without protease) [left graph] [2]: ~0.1 nM | EC50 (read off the curve), IL-12 luciferase reporter assay (+ MTSP1) [all three graphs] [3]: ~0.2 nM | EC50 (read off the curve), IL-12 luciferase reporter assay (without protease) [all three graphs] [3]: ~0.2 nM
B1: hIL12_His tag (ligand)
chain 1: IWELKKDVYVVELDWYPDAPGEMVVLTCDTPEEDGITWTLDQSSEVLGSGKTLTIQVKEFGDAGQYTCHKGGEVLSHSLLLLHKKEDGIWSTDILKDQKEPKNKTFLRCEAKNYSGRFTCWWLTTISTDLTFSVKSSRGSSDPQGVTCGAATLSAERVRGDNKEYEYSVECQEDSACPAAEESLPIEVMVDAVHKLKYENYTSSFFIRDIIKPDPPKNLQLKPLKNSRQVEVSWEYPDTWSTPHSYFSLTFCVQVQGKSKREKKDRVFTDKTSATVICRKNASISVRAQDRYYSSSWSEWASVPCS
chain 2: RNLPVATPDPGMFPCLHHSQNLLRAVSNMLQKARQTLEFYPCTSEEIDHEDITKDKTSTVEACLPLELTKNESCLNSRETSFITNGSCLASRKTSFMMALCLSSIYEDLKMYQVEFKTMNAKLLMDPKRQIFLDQNMLAVIDELMQALNFNSETVPQKSSLEEPDFYKTKIKLCILLHAFRIRAVTIDRVMSYLNAS

Kd [4]: 1.45 nM | kon [4]: 1.9e+06 M⁻¹ s⁻¹
B3: Anti-IL-12 antibody Ab1, variable region variant Ab101H/Ab102L (antibody, V domains shown)
VH: QVQLVQSGAEVKKPGSSVKVSCKASGGTFSDYYLHWVRQAPGQGLEWMGWIDPENGDTEYAPKFQGRVTITADESTSTAYMELSSLRSEDTAVYYCARNKELRYFDVWGQGTLVTVSS
VL: DIVMTQSPLSLPVTPGEPASISCRASQSISINLHWYQQKPGQAPRLLIYFASQSISGVPSRFSGSGSGTDFTLTISSLQPEDFATYYCQQSNSFPLTFGQGTKVEIKR

Kd [4]: 1.27 nM
B5: Anti-IL-12 antibody Ab1, variable region variant Ab101H725/Ab102L1087 (antibody, V domains shown)
VH: QVQLVQSGAEVKKPGSSVKVSCKASGGTFSDYYLHWSRQAPGQGLEWMGWIDPENQDTEYAPKFQGRVTITADESTSTAYMELSSLRSEDTAVYYCARTKELRYIDVWGQGTLVTVSS
VL: DIVMTQSPLSLPVTPGEPASISCRSSDSISINLHWYQQKPGQAPRQLIAFASQSISGVPSRFSGSGSGTDFTLTISSLQPEDFATYYCQQSNSFPLTFGQGTKVEIKR
notes: Mutations V37S, G55Q, N95T, F100aI / A25S, Q27D, L46Q, Y49A
